Laboratory results reported in patent US20200237885A1, “VACCINES FOR TREATMENT AND PREVENTION OF CANCER” (Agenus Inc., priority 2015, published 2020).
Where no end group is shown, it is not given here. [ ]: non-standard residue; d: D form. pS = N[C@@H](COP(=O)(O)O)C(=O)O

How the values were obtained:
recombinant human Hsc70 [1] = target: T1, recombinant human Hsc70 (Homo sapiens, UniProt P11142); assay: Hsc70-peptide complex formation by size exclusion chromatography (SEC); assay type: binding; conditions: for Percentage of Hsc70 loaded with peptide: peptide:Hsc70 4:1 molar excess, PBS 37° C. 1 hour
T1 construct: purchased Biomay AG
T1 sequence (P11142 whole entry): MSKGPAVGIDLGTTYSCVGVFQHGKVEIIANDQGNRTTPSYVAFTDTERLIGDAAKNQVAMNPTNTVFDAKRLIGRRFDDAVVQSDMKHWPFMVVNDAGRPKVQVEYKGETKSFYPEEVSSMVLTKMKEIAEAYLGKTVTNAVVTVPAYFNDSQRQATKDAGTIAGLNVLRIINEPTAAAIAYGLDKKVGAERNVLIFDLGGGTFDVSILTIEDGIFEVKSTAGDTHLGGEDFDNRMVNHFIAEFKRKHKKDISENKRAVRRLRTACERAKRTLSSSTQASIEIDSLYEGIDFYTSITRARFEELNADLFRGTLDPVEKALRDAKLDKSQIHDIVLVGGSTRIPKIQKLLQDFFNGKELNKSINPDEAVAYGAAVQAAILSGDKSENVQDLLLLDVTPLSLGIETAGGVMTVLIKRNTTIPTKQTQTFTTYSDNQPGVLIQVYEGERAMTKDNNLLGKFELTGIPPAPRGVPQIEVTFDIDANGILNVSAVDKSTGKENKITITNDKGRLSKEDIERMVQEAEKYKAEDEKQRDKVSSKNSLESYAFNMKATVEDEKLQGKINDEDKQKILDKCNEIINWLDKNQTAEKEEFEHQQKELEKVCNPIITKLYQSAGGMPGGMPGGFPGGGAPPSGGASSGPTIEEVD
Text: Hsc70-peptide complex formation was examined in vitro using size exclusion chromatography (SEC). Hsc70 resolves in two main peaks on a size exclusion column, with one peak corresponding to its monomeric form and the other peak to an oligomeric form (FIG. 14). Hsc70 undergoes a conformational change upon binding peptide (Zhuravleva and Gierasch, P.N.A.S. 112[22]:E2865-73 [2015]), resulting in the appearance of a new peak on the SEC chromatogram that corresponds to the peptide-bound form (FIG. 15). By measuring the surface area of each of the peaks corresponding to the forms of Hsc70 on a chromatogram, the percentage of Hsc70 complexed with a peptide can be determined. The effect of the molar ratio of Hsc70 to peptide on Hsc70-peptide complex formation was determined by combining Hsc70 and a test peptide at Hsc70/peptide molar ratios of 1:4, 1:10, 1:20, and 1:50, and then resolving the resulting mixtures by SEC to determine the extent of complex formation. The peptide used in these experiments was the immunogenic peptide B16-M27 (“M27”), containing a B16-F10 melanoma-specific mutation, as described in Kreiter et al., Nature 520(7549):692-6 (2015) (also described in Examples 9-11). The effect on complex formation of appending a high affinity Hsc70-binding peptide sequence to a chicken ovalbumin peptide having the amino acid sequence SIINFEKL (SEQ ID NO:448), that is highly immunogenic in mice (Zehn et al, Nature 458:211-214 [12 Mar., 2009]) was also tested. The high affinity Hsc70 binding sequence, NLLRLTG (SEQ ID NO:439) was appended to either the C- or N-terminus of the ovalbumin peptide, and was linked to the ovalbumin peptide by a linker having the sequence FFRK (SEQ ID NO:447), as disclosed in U.S. Pat. No. 7,309,491.
Standard size exclusion chromatography was carried out using 7 μM of recombinant human Hsc70 (Genbank Accession No. P11142.1) (Biomay AG) in a reaction buffer containing 20 mM HEPES and 200 mM KCL in a final volume of 50 μl. Reactions were incubated at 37° C. for 1 or 2 hours and centrifuged 2 min at 13000 RPM. Reaction products (10 μg) were resolved on a TSKgel SuperSW3000, 4 μm particle size, 25 nm pore size gel filtration chromatography column (Tosoh Bioscience). For reactions containing peptide, peptide was included in the reaction mixtures at Hsc70:peptide molar ratios of 1:4, 1:10, 1:20, and 1:50. The percentage of Hsc70 complexed with peptide in each reaction mixture was calculated by measuring the surface area of the appropriate peak.
The peptides listed above were individually incubated with Hsc70 in PBS at 37° C. for 1 hour to form non-covalent Hsc70-peptide complexes. For M27 and M30, the peptides were added to Hsc70 at a 20:1 molar excess (peptide:Hsc70) while for M27-Jav and M30-Jav, the peptides were added at a 4:1 molar excess. After incubation, the mixtures were diluted 10 times in PBS at 4° C. and concentrated using a 30 kDa MW cut off Millipore® Amicon® centrifugal filter to separate Hsc70-peptide complexes from free, uncomplexed peptide. The retained complexes 5 Hsc70-M27 and Hsc70-M30 were pooled and subsequently analyzed by size exclusion chromatography (SEC) to quantify the proportion of Hsc70 molecules loaded with peptide. […] The same pooling, filtration and SEC analysis steps were followed for the Hsc70-M27-Jay and Hsc70-M30-Jav complexes with the observation that 73% of the Hsc70 molecules were loaded with the peptides.
Four peptides (Table 9) containing a phosphorylated serine residue were synthesized to 95% purity (GenScript, Cambridge, Mass.). The peptides comprise HLA-A*02:01 binding epitopes of the CDC25 or IRS-2 antigen modified at either their C-termini or N-termini with the addition of a linker sequence FFRK (SEQ ID NO:447) and a high affinity HSP binding peptide sequence NLLRLTG (SEQ ID NO: 439). These peptides were individually incubated with Hsc70 in PBS at 37° C. for 1 hour at a 4:1 molar excess (peptide:Hsc70) to form non-covalent Hsc70-peptide complexes. […]

recombinant human Hsc70 [2] = target: T1, recombinant human Hsc70; assay: as above; assay type: binding
[3] = Hsc70:peptide molar ratio 1:10, 37° C.

Substance | Percentage of Hsc70 loaded with peptide (recombinant human Hsc70 [1]) [%] | percentage of Hsc70 complexed with peptide (recombinant human Hsc70 [1]; [3]) | also measured
GLLG{pSer}PVRAFFRKNLLRLTG (GLLG[pS]PVRAFFRKNLLRLTG) [SEQ ID NO 474] | 74 |  | 
NLLRLTGFFRKGLLG{pSer}PVRA (NLLRLTGFFRKGLLG[pS]PVRA) [SEQ ID NO 473] | 41 |  | 
NLLRLTGFFRKRVA{pSer}PTSGV (NLLRLTGFFRKRVA[pS]PTSGV) [SEQ ID NO 475] | 34 |  | 
REGVELCPGNKYEMRRHGTTHSLVIHD (M27) |  | approximately 40% | change in extent of complex formation with incubation time (recombinant human Hsc70 [2]; incubation time increased from 2 to 3 hours at 37° C.): only a minor increase; percentage of Hsc70 bound to peptide (recombinant human Hsc70 [1]; Hsc70:peptide molar ratio 1:4, 37° C.): 20%; percentage of Hsc70 complexed with peptide (recombinant human Hsc70 [1]; Hsc70:peptide molar ratio 1:20, 37° C.): approximately 50%; percentage of Hsc70 complexed with peptide (recombinant human Hsc70 [1]; Hsc70:peptide molar ratio 1:50, 37° C.): approximately 65%
RVA{pSer}PTSGVFFRKNLLRLTG (RVA[pS]PTSGVFFRKNLLRLTG) [SEQ ID NO 476] | 75 |  | 
SIINFEKLFFRKNLLRLTG [SEQ ID NO:449, reference compound] |  | over 90% | extent of complex formation, NLLRLTG at C-terminus compared to N-terminus (recombinant human Hsc70 [2]; Hsc70:peptide molar ratio 1:2, same result at 1:5): significantly greater
